Reference: publication PMC10638403

Target: full-length E. coli ClpX (E. coli) (UniProt P0A6H1)

rate of ClpP degradation of FITC-casein (50 µM, 30 °C) supported by full-length ∆NPS ClpX against wild-type ClpX (against ~10-fold for ∆NPS ClpX^∆N over ClpX^∆N): 2 fold
Substance: FITC-casein
